As usually defined, the Kd is the concentration at which binding is half-saturated. Read a low Kd as a tighter complex.

Assay in all cases: ITC
The target of series [1] is Jun bZIP R259A;Fos bZIP R144A (human;human, UniProt P05412;P01100 252-315;137-200, R259A|R144A).
Series [2] concerns the target Jun bZIP R261A;Fos bZIP K148A (human;human, UniProt P05412;P01100 252-315;137-200, R261A|K148A).
Series [3] has as its target Jun bZIP K268A;Fos bZIP R143A (human;human, UniProt P05412;P01100 252-315;137-200, K268A|R143A).
For series [4], the target named is Jun bZIP R272A;Fos bZIP K148A (human;human, UniProt P05412;P01100 252-315;137-200, R272A|K148A).
Series [5] addresses Jun bZIP R263A;Fos bZIP K153A (human;human, UniProt P05412;P01100 252-315;137-200, R263A|K153A).
Another series addresses Jun-Jun bZIP R259A (human, UniProt P05412 252-315, R259A).
Series [6] has as its target Jun bZIP K273A;Fos bZIP K148A (human;human, UniProt P05412;P01100 252-315;137-200, K273A|K148A).
For series [7], the target named is Jun bZIP R263A;Fos bZIP R158A (human;human, UniProt P05412;P01100 252-315;137-200, R263A|R158A).
In a further series the target is Jun-Jun bZIP R263A (human, UniProt P05412 252-315, R263A).
In series [8] the target is Jun bZIP R272A;Fos bZIP R158A (human;human, UniProt P05412;P01100 252-315;137-200, R272A|R158A).
For series [9], the target named is Jun bZIP R263A;Fos bZIP R144A (human;human, UniProt P05412;P01100 252-315;137-200, R263A|R144A).
Series [10] addresses Jun bZIP K258A;Fos bZIP K148A (human;human, UniProt P05412;P01100 252-315;137-200, K258A|K148A).
The target in series [11] is Jun bZIP K273A;Fos bZIP K153A (human;human, UniProt P05412;P01100 252-315;137-200, K273A|K153A).
For series [12], the target named is Jun bZIP R272A;Fos bZIP K153A (human;human, UniProt P05412;P01100 252-315;137-200, R272A|K153A).
For series [13], the target named is Jun bZIP R263A;Fos bZIP R143A (human;human, UniProt P05412;P01100 252-315;137-200, R263A|R143A).
Series [14] addresses Jun bZIP K268A;Fos bZIP R158A (human;human, UniProt P05412;P01100 252-315;137-200, K268A|R158A).
The target in series [15] is Jun bZIP K273A;Fos bZIP R155A (human;human, UniProt P05412;P01100 252-315;137-200, K273A|R155A).
Sequence of Jun bZIP K273A;Fos bZIP R155A (P05412 252-315 K273A, chain 1 of 2): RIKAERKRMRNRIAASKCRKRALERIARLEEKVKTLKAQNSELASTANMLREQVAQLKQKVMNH
Sequence of Jun bZIP K273A;Fos bZIP R155A (P01100 137-200 R155A, chain 2 of 2): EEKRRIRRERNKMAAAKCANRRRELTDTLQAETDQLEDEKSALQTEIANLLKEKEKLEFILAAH

Sequence of Jun bZIP R272A;Fos bZIP R158A (P05412 252-315 R272A, chain 1 of 2): as the sequence (P05412 252-315 K273A, chain 1 of 2) above, with R21A, A22K counted along it
Sequence of Jun bZIP R272A;Fos bZIP R158A (P01100 137-200 R158A, chain 2 of 2): as the sequence (P01100 137-200 R155A, chain 2 of 2) above, with A19R, R22A counted along it
Sequence of Jun bZIP R272A;Fos bZIP K153A (P05412 252-315 R272A, chain 1 of 2): as the sequence (P05412 252-315 K273A, chain 1 of 2) above, with R21A, A22K counted along it
Sequence of Jun bZIP R272A;Fos bZIP K153A (P01100 137-200 K153A, chain 2 of 2): as the sequence (P01100 137-200 R155A, chain 2 of 2) above, with K17A, A19R counted along it
Sequence of Jun bZIP R272A;Fos bZIP K148A (P05412 252-315 R272A, chain 1 of 2): as the sequence (P05412 252-315 K273A, chain 1 of 2) above, with R21A, A22K counted along it
Sequence of Jun bZIP R272A;Fos bZIP K148A (P01100 137-200 K148A, chain 2 of 2): as the sequence (P01100 137-200 R155A, chain 2 of 2) above, with K12A, A19R counted along it
Sequence of Jun bZIP R261A;Fos bZIP K148A (P05412 252-315 R261A, chain 1 of 2): as the sequence (P05412 252-315 K273A, chain 1 of 2) above, with R10A, A22K counted along it
Sequence of Jun bZIP R261A;Fos bZIP K148A (P01100 137-200 K148A, chain 2 of 2): as the sequence (P01100 137-200 R155A, chain 2 of 2) above, with K12A, A19R counted along it
Sequence of Jun bZIP R263A;Fos bZIP R158A (P05412 252-315 R263A, chain 1 of 2): as the sequence (P05412 252-315 K273A, chain 1 of 2) above, with R12A, A22K counted along it
Sequence of Jun bZIP R263A;Fos bZIP R158A (P01100 137-200 R158A, chain 2 of 2): as the sequence (P01100 137-200 R155A, chain 2 of 2) above, with A19R, R22A counted along it
Sequence of Jun-Jun bZIP R263A (P05412 252-315 R263A): as the sequence (P05412 252-315 K273A, chain 1 of 2) above, with R12A, A22K counted along it
Sequence of Jun bZIP R263A;Fos bZIP K153A (P05412 252-315 R263A, chain 1 of 2): as the sequence (P05412 252-315 K273A, chain 1 of 2) above, with R12A, A22K counted along it
Sequence of Jun bZIP R263A;Fos bZIP K153A (P01100 137-200 K153A, chain 2 of 2): as the sequence (P01100 137-200 R155A, chain 2 of 2) above, with K17A, A19R counted along it
Sequence of Jun bZIP R263A;Fos bZIP R144A (P05412 252-315 R263A, chain 1 of 2): as the sequence (P05412 252-315 K273A, chain 1 of 2) above, with R12A, A22K counted along it
Sequence of Jun bZIP R263A;Fos bZIP R144A (P01100 137-200 R144A, chain 2 of 2): as the sequence (P01100 137-200 R155A, chain 2 of 2) above, with R8A, A19R counted along it
Sequence of Jun bZIP R263A;Fos bZIP R143A (P05412 252-315 R263A, chain 1 of 2): as the sequence (P05412 252-315 K273A, chain 1 of 2) above, with R12A, A22K counted along it
Sequence of Jun bZIP R263A;Fos bZIP R143A (P01100 137-200 R143A, chain 2 of 2): as the sequence (P01100 137-200 R155A, chain 2 of 2) above, with R7A, A19R counted along it
Sequence of Jun bZIP K258A;Fos bZIP K148A (P05412 252-315 K258A, chain 1 of 2): as the sequence (P05412 252-315 K273A, chain 1 of 2) above, with K7A, A22K counted along it
Sequence of Jun bZIP K258A;Fos bZIP K148A (P01100 137-200 K148A, chain 2 of 2): as the sequence (P01100 137-200 R155A, chain 2 of 2) above, with K12A, A19R counted along it
Sequence of Jun bZIP K268A;Fos bZIP R158A (P05412 252-315 K268A, chain 1 of 2): as the sequence (P05412 252-315 K273A, chain 1 of 2) above, with K17A, A22K counted along it
Sequence of Jun bZIP K268A;Fos bZIP R158A (P01100 137-200 R158A, chain 2 of 2): as the sequence (P01100 137-200 R155A, chain 2 of 2) above, with A19R, R22A counted along it
Sequence of Jun bZIP K268A;Fos bZIP R143A (P05412 252-315 K268A, chain 1 of 2): as the sequence (P05412 252-315 K273A, chain 1 of 2) above, with K17A, A22K counted along it
Sequence of Jun bZIP K268A;Fos bZIP R143A (P01100 137-200 R143A, chain 2 of 2): as the sequence (P01100 137-200 R155A, chain 2 of 2) above, with R7A, A19R counted along it
Sequence of Jun bZIP R259A;Fos bZIP R144A (P05412 252-315 R259A, chain 1 of 2): as the sequence (P05412 252-315 K273A, chain 1 of 2) above, with R8A, A22K counted along it
Sequence of Jun bZIP R259A;Fos bZIP R144A (P01100 137-200 R144A, chain 2 of 2): as the sequence (P01100 137-200 R155A, chain 2 of 2) above, with R8A, A19R counted along it
Sequence of Jun-Jun bZIP R259A (P05412 252-315 R259A): as the sequence (P05412 252-315 K273A, chain 1 of 2) above, with R8A, A22K counted along it
Sequence of Jun bZIP K273A;Fos bZIP K153A (P05412 252-315 K273A, chain 1 of 2): as the sequence (P05412 252-315 K273A, chain 1 of 2) above
Sequence of Jun bZIP K273A;Fos bZIP K153A (P01100 137-200 K153A, chain 2 of 2): as the sequence (P01100 137-200 R155A, chain 2 of 2) above, with K17A, A19R counted along it
Sequence of Jun bZIP K273A;Fos bZIP K148A (P05412 252-315 K273A, chain 1 of 2): as the sequence (P05412 252-315 K273A, chain 1 of 2) above
Sequence of Jun bZIP K273A;Fos bZIP K148A (P01100 137-200 K148A, chain 2 of 2): as the sequence (P01100 137-200 R155A, chain 2 of 2) above, with K12A, A19R counted along it

B1: TRE duplex 15-mer (dsDNA)
DNA 1: CGCGTGACTCACCCC
DNA 2: GGGGTGAGTCACGCG
B1: the Kd in series [1] is 15800 ± 620 nM; in series [2], 950 ± 60 nM; in series [3] it was 720 ± 10 nM; in [4], 710 ± 20 nM; in [5], 1150 ± 80 nM; with Jun-Jun bZIP R259A, 5250 ± 60 nM. The Kd in series [6] came out at 760 ± 10 nM; in series [7] it was 1120 ± 70 nM; in the series with Jun-Jun bZIP R263A, 2140 ± 100 nM; in [8], 620 ± 40 nM; in [9] it was 4210 ± 200 nM; in series [10], 660 ± 20 nM. Besides, the Kd in [11] amounted to 840 ± 50 nM; in series [12], 960 ± 110 nM; in series [13], 2250 ± 50 nM; in [14], 430 ± 20 nM; in [15], 6790 ± 420 nM.

The record behind these values is paper PMC3154423.
